These are literature values, as cited in article PMC2983480.

The target of the data set is Arp2/3 complex (Bos taurus) (UniProt A7MB62).

As a reminder, the Kd is the constant that tells how readily two partners part at equilibrium. Take WASp VCA (from UniProt P42768): the Kd was 900 nM.
